Bridge positions count the residues as written; N and C are the ends. Square brackets hold non-standard residues; d marks the D form. Primed or numbered codes have the meaning given here. Side chains are listed from the residue outwards. Ends that are not written are not given here. * marks the point of attachment. Tyr(3-Cl) = N[C@@H](Cc1ccc(O)c(Cl)c1)C(=O)O; Tyr(3-I) = N[C@@H](Cc1ccc(O)c(I)c1)C(=O)O; Phe(3-OMe) = COc1cccc(C[C@H](N)C(=O)O)c1; Phe(4-NH2) = Nc1ccc(C[C@H](N)C(=O)O)cc1; Phe(4-F) = N[C@@H](Cc1ccc(F)cc1)C(=O)O; Dmt = Cc1cc(O)cc(C)c1C[C@H](N)C(=O)O; hTyr = N[C@@H](CCc1ccc(O)cc1)C(=O)O; NMeA = CN[C@@H](C)C(=O)O; Gd^T″ = GdDTPA-thiourea; Cbz = O=C(OCc1ccccc1)*
Legend:
[1] = target: T1, human collagen type I, acid soluble, extracted from placenta (Sigma C7774) (human, UniProt P02452 162-1218; P08123 80-1119); experiment: dried collagen assay
T1 construct: tissue extract, gelled and dried in wells; also called dried human collagen; h-Collagen
T1 sequence (P02452 162-1218 limits assumed, chain 1 of 2): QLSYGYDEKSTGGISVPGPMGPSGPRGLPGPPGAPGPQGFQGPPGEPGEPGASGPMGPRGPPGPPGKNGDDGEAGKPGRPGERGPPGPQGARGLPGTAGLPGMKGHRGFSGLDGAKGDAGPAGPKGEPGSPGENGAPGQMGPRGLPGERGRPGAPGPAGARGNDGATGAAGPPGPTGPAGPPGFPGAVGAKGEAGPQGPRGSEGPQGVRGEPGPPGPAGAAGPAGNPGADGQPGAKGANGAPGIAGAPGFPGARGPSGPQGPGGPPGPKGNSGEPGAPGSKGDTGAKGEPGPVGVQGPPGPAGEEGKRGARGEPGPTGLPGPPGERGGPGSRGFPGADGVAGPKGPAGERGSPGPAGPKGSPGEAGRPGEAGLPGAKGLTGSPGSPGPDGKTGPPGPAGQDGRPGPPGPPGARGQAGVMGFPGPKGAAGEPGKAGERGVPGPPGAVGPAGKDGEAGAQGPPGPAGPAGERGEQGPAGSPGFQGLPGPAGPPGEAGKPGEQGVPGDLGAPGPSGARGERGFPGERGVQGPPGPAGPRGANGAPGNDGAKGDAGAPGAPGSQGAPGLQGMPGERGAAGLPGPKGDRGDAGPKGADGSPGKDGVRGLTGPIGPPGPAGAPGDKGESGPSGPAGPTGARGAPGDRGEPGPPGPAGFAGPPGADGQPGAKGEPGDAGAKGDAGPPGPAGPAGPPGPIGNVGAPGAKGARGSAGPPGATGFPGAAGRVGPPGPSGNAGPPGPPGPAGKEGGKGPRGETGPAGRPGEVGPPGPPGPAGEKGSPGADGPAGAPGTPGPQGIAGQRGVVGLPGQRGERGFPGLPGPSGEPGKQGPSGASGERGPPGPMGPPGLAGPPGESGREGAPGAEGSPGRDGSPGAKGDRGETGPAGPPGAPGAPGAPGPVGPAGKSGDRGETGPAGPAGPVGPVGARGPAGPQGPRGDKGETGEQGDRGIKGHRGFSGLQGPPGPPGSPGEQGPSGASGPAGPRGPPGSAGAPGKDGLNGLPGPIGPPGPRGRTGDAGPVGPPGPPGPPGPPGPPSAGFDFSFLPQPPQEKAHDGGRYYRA
T1 sequence (P08123 80-1119 limits assumed, chain 2 of 2): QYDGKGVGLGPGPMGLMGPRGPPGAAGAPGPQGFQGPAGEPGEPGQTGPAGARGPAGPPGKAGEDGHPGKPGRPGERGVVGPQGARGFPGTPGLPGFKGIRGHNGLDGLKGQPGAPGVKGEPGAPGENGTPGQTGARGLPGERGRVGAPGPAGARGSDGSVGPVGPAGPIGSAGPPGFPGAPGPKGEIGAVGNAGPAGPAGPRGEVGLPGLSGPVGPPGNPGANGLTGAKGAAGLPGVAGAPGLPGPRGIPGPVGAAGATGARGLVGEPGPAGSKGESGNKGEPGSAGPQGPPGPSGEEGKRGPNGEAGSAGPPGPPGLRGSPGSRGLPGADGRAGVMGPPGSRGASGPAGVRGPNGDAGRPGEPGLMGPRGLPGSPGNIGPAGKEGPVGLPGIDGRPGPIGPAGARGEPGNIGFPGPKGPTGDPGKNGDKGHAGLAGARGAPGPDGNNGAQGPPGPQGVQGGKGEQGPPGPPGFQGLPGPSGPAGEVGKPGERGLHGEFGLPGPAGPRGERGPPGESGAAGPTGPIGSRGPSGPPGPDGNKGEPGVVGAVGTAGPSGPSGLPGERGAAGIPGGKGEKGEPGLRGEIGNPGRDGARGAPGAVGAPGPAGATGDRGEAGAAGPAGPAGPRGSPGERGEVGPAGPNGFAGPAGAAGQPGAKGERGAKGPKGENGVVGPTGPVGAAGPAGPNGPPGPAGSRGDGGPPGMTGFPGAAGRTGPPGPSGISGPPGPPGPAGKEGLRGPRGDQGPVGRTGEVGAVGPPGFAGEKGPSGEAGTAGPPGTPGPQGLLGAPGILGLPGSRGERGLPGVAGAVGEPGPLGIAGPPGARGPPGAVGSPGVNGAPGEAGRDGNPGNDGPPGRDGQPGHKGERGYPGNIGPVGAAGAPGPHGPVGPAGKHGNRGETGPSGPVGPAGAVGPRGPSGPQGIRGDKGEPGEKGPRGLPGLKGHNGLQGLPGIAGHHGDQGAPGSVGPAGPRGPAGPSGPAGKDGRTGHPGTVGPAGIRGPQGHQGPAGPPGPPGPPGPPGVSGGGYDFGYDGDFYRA

[2] = target: T2, rat collagen, acid soluble, type I, rat tail (Upstate 08-115) (rat, UniProt P02454 152-1207; P02466 86-1125); experiment: dried collagen assay
T2 construct: tissue extract, gelled and dried in wells; also called dried rat collagen
T2 sequence (P02454 152-1207, chain 1 of 2): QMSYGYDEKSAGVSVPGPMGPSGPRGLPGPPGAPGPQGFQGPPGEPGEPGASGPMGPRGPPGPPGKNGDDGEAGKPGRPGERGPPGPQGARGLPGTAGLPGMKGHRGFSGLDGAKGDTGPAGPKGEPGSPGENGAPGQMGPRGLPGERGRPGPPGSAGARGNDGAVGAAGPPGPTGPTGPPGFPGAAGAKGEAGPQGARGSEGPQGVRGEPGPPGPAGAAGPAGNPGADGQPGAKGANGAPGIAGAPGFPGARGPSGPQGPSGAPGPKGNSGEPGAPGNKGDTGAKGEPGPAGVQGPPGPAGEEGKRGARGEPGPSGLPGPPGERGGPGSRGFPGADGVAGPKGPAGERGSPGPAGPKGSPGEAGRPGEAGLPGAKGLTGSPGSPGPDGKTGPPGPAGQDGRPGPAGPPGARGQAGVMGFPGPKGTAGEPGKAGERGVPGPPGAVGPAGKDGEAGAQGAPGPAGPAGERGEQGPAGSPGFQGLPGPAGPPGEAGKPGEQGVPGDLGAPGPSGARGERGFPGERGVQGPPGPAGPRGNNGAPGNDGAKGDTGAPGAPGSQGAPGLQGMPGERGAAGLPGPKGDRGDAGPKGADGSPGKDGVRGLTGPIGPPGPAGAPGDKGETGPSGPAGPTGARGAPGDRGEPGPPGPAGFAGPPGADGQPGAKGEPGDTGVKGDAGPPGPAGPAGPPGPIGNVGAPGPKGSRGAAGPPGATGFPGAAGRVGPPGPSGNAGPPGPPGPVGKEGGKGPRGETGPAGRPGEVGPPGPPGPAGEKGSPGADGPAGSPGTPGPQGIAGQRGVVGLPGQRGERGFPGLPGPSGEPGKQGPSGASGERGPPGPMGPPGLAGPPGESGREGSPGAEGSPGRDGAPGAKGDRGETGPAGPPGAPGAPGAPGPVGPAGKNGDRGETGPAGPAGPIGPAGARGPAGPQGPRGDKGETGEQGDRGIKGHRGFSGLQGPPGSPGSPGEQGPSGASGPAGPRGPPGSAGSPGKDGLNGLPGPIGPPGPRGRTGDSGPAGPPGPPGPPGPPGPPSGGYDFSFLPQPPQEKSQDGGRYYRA
T2 sequence (P02466 86-1125, chain 2 of 2): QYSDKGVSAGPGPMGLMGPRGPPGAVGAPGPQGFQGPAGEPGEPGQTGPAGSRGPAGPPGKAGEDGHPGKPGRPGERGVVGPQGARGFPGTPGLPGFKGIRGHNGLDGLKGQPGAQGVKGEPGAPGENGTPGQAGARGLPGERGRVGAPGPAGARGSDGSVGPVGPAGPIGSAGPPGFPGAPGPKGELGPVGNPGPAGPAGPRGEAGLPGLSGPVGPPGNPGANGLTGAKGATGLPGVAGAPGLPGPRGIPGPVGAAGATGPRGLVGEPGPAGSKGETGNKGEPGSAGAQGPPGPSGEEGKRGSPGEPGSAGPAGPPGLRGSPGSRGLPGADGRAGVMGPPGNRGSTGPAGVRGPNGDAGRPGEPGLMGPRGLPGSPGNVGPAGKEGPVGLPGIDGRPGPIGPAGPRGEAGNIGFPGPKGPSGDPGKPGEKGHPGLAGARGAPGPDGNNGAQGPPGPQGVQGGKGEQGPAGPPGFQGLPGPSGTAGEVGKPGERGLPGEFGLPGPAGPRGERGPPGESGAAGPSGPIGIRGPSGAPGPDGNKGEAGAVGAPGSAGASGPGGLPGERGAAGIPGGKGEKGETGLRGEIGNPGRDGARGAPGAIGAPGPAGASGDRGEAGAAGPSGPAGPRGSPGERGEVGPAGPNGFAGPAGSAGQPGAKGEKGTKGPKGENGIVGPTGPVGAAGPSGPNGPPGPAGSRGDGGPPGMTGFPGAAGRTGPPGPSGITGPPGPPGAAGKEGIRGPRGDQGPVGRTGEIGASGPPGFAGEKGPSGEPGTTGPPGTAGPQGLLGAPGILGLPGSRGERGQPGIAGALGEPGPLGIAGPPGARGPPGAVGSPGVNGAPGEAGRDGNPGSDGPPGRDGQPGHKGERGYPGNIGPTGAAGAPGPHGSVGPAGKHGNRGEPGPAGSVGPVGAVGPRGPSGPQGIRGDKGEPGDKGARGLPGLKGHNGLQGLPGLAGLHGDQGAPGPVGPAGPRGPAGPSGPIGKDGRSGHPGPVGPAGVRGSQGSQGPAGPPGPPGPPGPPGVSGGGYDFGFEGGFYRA

Row | Binder | % bound [1] | % bound [2]
1 | {Gd^T″}-GQWNCTTLFPHHYCLYG (disulfide 5-14 (inferred)) [Compound ID 922] | 68% | 58%
2 | {Gd^T″}-GQWHCTTLFPNHYCLYG (disulfide 5-14 (inferred)) [Compound ID 923] | 28% | 10%
3 | {Gd^T″}-GQWHCTTLFPHNYCLYG (disulfide 5-14 (inferred)) [Compound ID 924] | 24% | 1%
4 | Cbz-GQWHCTTK(Gd^T″)FPHHYCLYG (disulfide 5-14 (inferred)) [Compound ID 926] | 81% | 87%
5 | {Gd^T″}-GQWHCTTLFPHHYCIYG (disulfide 5-14 (inferred)) [Compound ID 927] | 64% | 63%
6 | {Gd^T″}-GQWHCTTLFPHHYCVYG (disulfide 5-14 (inferred)) [Compound ID 928] | 73% | 80%
7 | {Gd^T″}-GQWHCTT[Phe(4-F)]FPHHYCLYG (disulfide 5-14 (inferred)) [Compound ID 929] | 27% | 34%
8 | {Gd^T″}-GK([Gly-Gd^T″])WHCTTLFPHHYCLYG (disulfide 5-14 (inferred)) [Compound ID 930] | 31% | 42%
9 | {Gd^T″}-GQWHCTTRFPHHYCFYG (disulfide 5-14 (inferred)) [Compound ID 931] | 70% | 83%
10 | {Gd^T″}-GQWHCTTRFPHH[hTyr]CLYG (disulfide 5-14 (inferred)) [Compound ID 933] | 36% | 24%
11 | {Gd^T″}-GQWHCTTRFPHH[hTyr(Me)]CLYG (disulfide 5-14 (inferred)) [Compound ID 934] | 21% | 14%
12 | {Gd^T″}-GQWHCTTRFPHH[Phe(3-OMe)]CLYG (disulfide 5-14 (inferred)) [Compound ID 935] | 59% | 39%
13 | {Gd^T″}-GQWHCTTRF[NMeA]HHYCLYG (disulfide 5-14 (inferred)) [Compound ID 938] | 16% | 13%
14 | {Gd^T″}-GK([Gly-Gd^T″])WHCTTYFPHHYCVYG (disulfide 5-14 (inferred)) [Compound ID 942] | 78% | 67%
15 | {Gd^T″}-GK([Gly-Gd^T″])WHCYTYFPHHYCLYG (disulfide 5-14 (inferred)) [Compound ID 943] | 55% | 72%
16 | {Gd^T″}-GK([Gly-Gd^T″])WHCYTYFPHHYCVYG (disulfide 5-14 (inferred)) [Compound ID 944] | 91% | 84%
17 | {Gd^T″}-GK([Gly-Gd^T″])WHCYTYFPHHYCVYY (disulfide 5-14 (inferred)) [Compound ID 945] | 83% | 82%
18 | {Gd^T″}-GK([Gly-Gd^T″])WHCTTYFPYHYCLYG (disulfide 5-14 (inferred)) [Compound ID 946] | 71% | 68%
19 | {Gd^T″}-GK([Gly-Gd^T″])WHCTTYFPHYYCLYG (disulfide 5-14 (inferred)) [Compound ID 947] | 64% | 57%
20 | {Gd^T″}-GK([Gly-Gd^T″])WHCTTYFPHWYCLYG (disulfide 5-14 (inferred)) [Compound ID 948] | 25% | 17%
21 | {Gd^T″}-GK([Gly-Gd^T″])WHCTTYFPHHYCLYY (disulfide 5-14 (inferred)) [Compound ID 949] | 72% | 79%
22 | {Gd^T″}-GK([Gly-Gd^T″])WHCTTYFPHH[Tyr(3-Cl)]CLYG (disulfide 5-14 (inferred)) [Compound ID 952] | 52% | 72%
23 | {Gd^T″}-GK([Gly-Gd^T″])WHCTTYFPHH[Dmt]CLYG (disulfide 5-14 (inferred)) [Compound ID 953] | 50% | 50%

Second part, the binder after the results:

Row | % bound [1] | % bound [2] | Binder
24 | 31% | 22% | {Gd^T″}-GQWHCTTRFPHHYCLYG (disulfide 5-14 (inferred); not fully specified (C-terminus)) [Compound ID 954]
25 | 39% | 15% | {Gd^T″}-GQWK(Gd^T″)CTTRFPHHYCLYG (disulfide 5-14 (inferred)) [Compound ID 956]
26 | 42% | 39% | {Gd^T″}-GQWHCK(Gd^T″)TRFPHHYCLYG (disulfide 5-14 (inferred)) [Compound ID 957]
27 | 45% | 33% | {Gd^T″}-GQWHCTTRFPK(Gd^T″)HYCLYG (disulfide 5-14 (inferred)) [Compound ID 958]
28 | 58% | 68% | {Gd^T″}-GQWHCYTLFPHHYCLYG (disulfide 5-14 (inferred)) [Compound ID 959]
29 | 20% | 10% | {Gd^T″}-GK([Gly-Gd^T″])WHCTTYFPTHYCLYG (disulfide 5-14 (inferred)) [Compound ID 962]
30 | 82% | 91% | {Gd^T″}-GK([Gly-Gd^T″])WHCYTYFPYHYCVYG (disulfide 5-14 (inferred)) [Compound ID 963]
31 | 88% | 86% | {Gd^T″}-GK([Gly-Gd^T″])WHCYTYFPYHYCLYG (disulfide 5-14 (inferred)) [Compound ID 964]
32 | 26% | 11% | {Gd^T″}-GK([Gly-Gd^T″])WHCTTYFPHHVCLYG (disulfide 5-14 (inferred)) [Compound ID 965]
33 | 53% | 54% | {Gd^T″}-GK([Gly-Gd^T″])WHCTTYFPHHYCL[Phe(4-NH2)]G (disulfide 5-14 (inferred); not fully specified (C-terminus)) [Compound ID 970]
34 | 21% | 25% | {Gd^T″}-GK([Gly-Gd^T″])WHCTTYFPHHYCL[Phe(4-NH2)](Gd^T″)G (disulfide 5-14 (inferred); not fully specified (C-terminus)) [Compound ID 971]
35 | 3% | 0% | {Gd^T″}-GK([Gly-Gd^T″])WHCTTYFPHH[Phe(4-NH2)]CLYG (disulfide 5-14 (inferred); not fully specified (C-terminus)) [Compound ID 972]
36 | 85% | 92% | {Gd^T″}-GK([Gly-Gd^T″])WHC[Tyr(3-I)]TYFPHHYCLYG (disulfide 5-14 (inferred); not fully specified (C-terminus)) [Compound ID 973]
37 | 64% | 66% | {Gd^T″}-GK([Gly-Gd^T″])WHCYTK(Gd^T″)FPHHYCVYG (disulfide 5-14 (inferred); not fully specified (C-terminus)) [Compound ID 978]
38 | 87% | 86% | {Gd^T″}-GK([Gly-Gd^T″])WHCYTK(Gd^T″)FPHHYCVYY (disulfide 5-14 (inferred); not fully specified (C-terminus)) [Compound ID 979]
39 | 85% | 80% | {Gd^T″}-GK([Gly-Gd^T″])WHCTTK(Gd^T″)FPHHYCLYY (disulfide 5-14 (inferred); not fully specified (C-terminus)) [Compound ID 980]
40 | 59% | 62% | {Gd^T″}-GK([Gly-Gd^T″])WYCTTYFPHHYCLYG (disulfide 5-14 (inferred); not fully specified (C-terminus)) [Compound ID 990]

Reference: US20080044360A1 (COLLAGEN MEDICAL, published 2008)
